Measurements from US7285703B2, “Plant like starches and the method of making them in hosts” (BASF Plant Science GmbH, priority 1998, dated 2007).

Columns and labels:
[1] = substrate: Nc1ncnc2c1ncn2[C@@H]1O[C@H](COP(=O)(O)OP(=O)(O)O[C@H]2O[C@H](CO)[C@@H](O)[C@H](O)[C@H]2O)[C@@H](O)[C@H]1O; assay: ADPGlc kinetics of starch synthase SSIIa-1; assay type: biochemical, maize; settings: other: amylopectin as primer, −citrate, 27° C.
Text: FIG. 59. SSIIa-1 and SSIIa-2 construct diagram. Two forms of SSIIa were constructed in the pET expression system. pExs3c encodes SSIIa-1, the putative full length maize SSIIa which has the N-terminal sequence AEAEAGGK (SEQ ID NO:68). […] A depiction of the waxy gene, encoding GBSS which has the N-terminal sequence ASAGMNVV (SEQ ID NO:67), is also included for comparison. The amino acid motif KTGGL (SEQ ID NO:10), the putative binding site for ADPGlc, is indicated by the triangles. The KTGGL (SEQ ID NO:10) motif is located 18 amino acids from the N-terminus in GBSS, while the motif is 194 amino acids from the N-terminus in maize SSIIa.
5 mL of supernatant were used to assay STS and SBE activities as previously described (Preiss) with minor modification. […] […] The unincorporated [^14C]-ADPGlc was separated with Dowex anion exchange column (200-400 mesh, Sigma Chemical Co.). One unit of activity is defined as 1 nmol Glc incorporated into the a-glucan per min at 25° C. SBE activity was determined by phosphorylase stimulation assay. One unit of activity is defined as 1 mmol Glc incorporated into the a-glucan per min at. 30° C. […]

maize starch synthases = assay: Expression of maize starch synthases in Escherichia coli BL21 (DE3): specific activity; assay type: biochemical; settings: 25° C., 5 mg/mL glycogen as primer

B1: maize starch synthase SSIIa-1, putative full length SSIIa (669 amino acids), N-terminus AEAEAGGK (SEQ ID NO:68) (Zea mays) (protein)
chain: AEAEAGGKDAPPERSGDAARLPRARRNAVSKRRDPLQPVGRYGSATGNTARTGAASCQNAALADVEIVEIKSIVAAPPTSIVKFPGRGLQDDPSLWDIAPETVLPAPKPLHESPAVDGDSNGIAPPTVEPLVQEATWDFKKYIGFDEPDEAKDDSRVGADDAGSFEHYGTMILGLCGENVMNVIVVAAECSPWCKTGGLGDVVGALPKALARRGHRVMVVVPRYGDYVEAFDMGIRKYYKAAGQDLEVNYFHAFIDGVDFVFIDASFRHRQDDIYGGSRQEIMKRMILFCKVAVEVPWHVPCGGVCYGDGNLVFIAMNWHTALLPVYLKAYYRDHGLMQYTRSVLVIHNIGHQGRGPVHEFPYMDLLNTNLQHFELYDPVGGEHANIFAACVLKMADRVVTVSRGYLWELKTVEGGWGLHDIIRSNDWKINGIRERIDHQEWNPKVDVHLRSDGYTNYSLETLDAGKRQCKAALQRDVGLEVRDDVPLLGFIGRLDGQKGVDIIGDAMPWIAGQDVQLVMLGTGPPDLERMLQHLEREHPNKVRGWVGFSVLMVHRITPGASVLVMPSRFAGGLNQLYAMAYGTVPVVHAVGGLRDTVAPFDPFGDAGLGWTFDRAEANKLIEVLSHCLDTYRNYEESWKSLQARGMSQNLSWDHAAELYEDVLVKYQW
- Km [1]: 460 ± 60 µM

B2: pEXS-wx: maize GBSS (waxy), N-terminus ASAGMNVVFV, expressed from this plasmid in E. coli BL21 (DE3) (protein, UniProt P04713 73-605, looked up)
Granule-bound starch synthase …: ASAGMNVVFVGAEMAPWSKTGGLGDVLGGLPPAMAANGHRVMVVSPRYDQYKDAWDTSVVSEIKMGDGYETVRFFHCYKRGVDRVFVDHPLFLERVWGKTEEKIYGPVAGTDYRDNQLRFSLLCQAALEAPRILSLNNNPYFSGPYGEDVVFVCNDWHTGPLSCYLKSNYQSHGIYRDAKTAFCIHNISYQGRFAFSDYPELNLPERFKSSFDFIDGYEKPVEGRKINWMKAGILEADRVLTVSPYYAEELISGIARGCELDNIMRLTGITGIVNGMDVSEWDPSRDKYIAVKYDVSTAVEAKALNKEALQAEVGLPVDRNIPLVAFIGRLEEQKGPDVMAAAIPQLMEMVEDVQIVLLGTGKKKFERMLMSAEEKFPGKVRAVVKFNAALAHHIMAGADVLAVTSRFEPCGLIQLQGMRYGTPCACASTGGLVDTIIEGKTGFHMGRLSVDCNVVEPADVKKVATTLQRAIKVVGTPAYEEMVRNCMIQDLSWKGPAKNWENVLLSLGVAGGEPGVEGEEIAPLAKENVAAP
modifications: expressed in E. coli
- Specific Activities (maize starch synthases): 0.033 units/mg Protein
